Tests used:
RIF1 = RIF1 (UniProt Q5UIP0); test: reciprocal co-IP, Western blot; details: reference: WT 53BP1 (before and 1 h after IR); sites T334
PTIP = PTIP (UniProt Q6ZW49); test: reciprocal co-IP, Western blot; details: reference: WT 53BP1 (before and 1 h after IR); sites T334

53BP1 (from UniProt Q12888) T334A 53BP1 (before and 1 h after IR)
binding against the reference (RIF1): stronger
binding against the reference (PTIP): stronger
